Experiment [1] addresses T1, PRLR (prolactin receptor, as named in the kinetics and crystallography paragraph) (UniProt P16471 25-234, limits assumed).
T1 construct: The paragraph says only 'PRLR'
T1 sequence (looked up): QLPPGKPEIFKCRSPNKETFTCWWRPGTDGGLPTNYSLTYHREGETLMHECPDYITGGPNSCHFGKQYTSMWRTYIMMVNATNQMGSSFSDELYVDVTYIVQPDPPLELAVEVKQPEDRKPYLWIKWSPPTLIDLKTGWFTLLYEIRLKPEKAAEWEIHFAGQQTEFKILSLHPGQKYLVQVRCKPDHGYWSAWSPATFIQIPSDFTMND
Put plainly: kinetic measurement, method not named.

The target in experiment [2] is T2, Human PRLR expressed on HEK-293 cells (human, UniProt P16471 25-622).
T2 construct: also called PRLR-expressing HEK-293 cells; HEK293/Human PRLR
T2 sequence: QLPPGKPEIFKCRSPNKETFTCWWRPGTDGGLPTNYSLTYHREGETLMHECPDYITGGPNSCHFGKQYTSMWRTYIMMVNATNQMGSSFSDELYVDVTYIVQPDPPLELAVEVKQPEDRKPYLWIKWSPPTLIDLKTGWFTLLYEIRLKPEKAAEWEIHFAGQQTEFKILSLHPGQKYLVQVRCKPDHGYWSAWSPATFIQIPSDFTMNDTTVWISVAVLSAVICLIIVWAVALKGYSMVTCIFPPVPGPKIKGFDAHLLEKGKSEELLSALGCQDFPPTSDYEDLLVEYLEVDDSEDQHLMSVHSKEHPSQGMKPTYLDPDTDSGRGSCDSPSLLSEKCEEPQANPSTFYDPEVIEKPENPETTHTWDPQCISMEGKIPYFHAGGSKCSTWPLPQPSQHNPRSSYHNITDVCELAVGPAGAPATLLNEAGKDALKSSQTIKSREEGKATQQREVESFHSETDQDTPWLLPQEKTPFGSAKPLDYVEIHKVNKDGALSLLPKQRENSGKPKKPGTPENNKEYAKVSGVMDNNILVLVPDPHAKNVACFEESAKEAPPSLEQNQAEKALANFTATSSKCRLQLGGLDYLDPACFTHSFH
Kind of experiment: FACS titration on PRLR-expressing HEK-293 cells (293hPRLR), MFI against Ab (nM).

B1: anti-PRLR antibody LFA-102 (Novartis) (antibody, V domains shown)
VH: EVQLVESGGGLVQPGGSLRLSCAVSGFTFSSYGMSWVRQAPGKRLEWVATVSSGGTYTYYPDSVKGRFTISRDNSKNTLYLQMNSLRAEDTAMYYCARHRGNYYATYYYAMDYWGQGTLVTVSS
VL: DIVLTQSPDSLAVSLGERATINCKASKSVSTSGYTYMHWYQQKPGQPPKLLIYLASNRESGVPDRFSGSGSGTDFTLTISPVQAEDVATYYCQHSGELPPSFGQGTKLEIKR
In the case of B1, in experiment [1], the Kd (in general, the equilibrium constant for the complex coming apart) came out at 1.3 nM and the off-rate (koff) (in general, a measure of how fast the partners let go of each other) is 0.0011 s⁻¹.

B2: h16f humanized anti-PRLR antibody (antibody, human IgG1, kappa)
heavy: not shown
light: DIQMTQSPSSVSASVGDRVTITCKASQYVGTAVAWYQQKPGKSPKLLIYSASNRYTGVPSRFSDSGSGTDFTLTISSLQPEDFATYFCQQYSSYPWTFGGGTKVEIKRTVAAPSVFIFPPSDEQLKSGTASVVCLLNNFYPREAKVQWKVDNALQSGNSQESVTEQDSKDSTYSLSSTLTLSKADYEKHKVYACEVTHQGLSSPVTKSFNRGEC
notes: Humanized IgG1; also called antibody h16f; parental h16f
In experiment [1], B2 displayed a Kd of 0.46 nM and a koff of 0.000623 s⁻¹. Besides, the EC50 – broadly, the concentration that produces a half-maximal response – in experiment [2] was 0.29 nM.

B3: h16e anti-PRLR antibody (antibody, human IgG1, kappa)
heavy: not shown
light: DIQMTQSPSSLSASVGDRVTITCRASENIYSYLAWYQQKPGKPPKLLVYNAKTLAEGVPSRFSGSGSGTDFTLTISSLQPEDFATYYCQHHYATPFTFGQGTKLEIKRTVAAPSVFIFPPSDEQLKSGTASVVCLLNNFYPREAKVQWKVDNALQSGNSQESVTEQDSKDSTYSLSSTLTLSKADYEKHKVYACEVTHQGLSSPVTKSFNRGEC
In the case of B3, the EC50 in experiment [2] amounted to 0.5 nM.

The values are drawn from US20190010237A1 (AbbVie / Abbott, published 2019).
